According to US20040175785A1, “Increasing bioavailability of carotenoids” (priority 2001, published 2004):

Experiment: Enzymatic deesterification of paprika oleoresin carotenoids, HPLC determination
Type: biochemical
Method: HPLC was conducted on a Shimadzu LC-10 AT equipped with SCL-10A Shimadzu diode array detector. Photodiode array measurements of spectral properties from the individual peaks (from 260 to 540 nm) were determined at the upslope, apex and downslope. The column (Merck RP-18e 3.4×250 […], 5-μm particles) was used for HPLC separations. The peaks were detected at 450 and 474 nm.
Deesteriflcation paprika oleoresin by enzymes: Paprika oleoresin (20 mg) was mixed with TWEEN-20 (200 μl) or deoxycholate (100 mg) and 10 ml of H2O. The emulsion has been shaken at 37° C. for 24 hours. Extraction of carotenoids was performed by the addition of 4 ml of ethanol and 5 ml of hexane. The extraction with hexane was done repeatedly until no color could be observed in the extracts. The combined hexane extracts were washed with water (25 ml) and dried over anhydrous sodium sulfate for HPLC determination of the carotenoids.

B1: pancreatic lipase: lipase pancreatic from porcine, obtained from Sigma Chemical Co. (protein, UniProt P00591 1-450, looked up)
Pancreatic triacylglycerol …: SEVCFPRLGCFSDDAPWAGIVQRPLKILPWSPKDVDTRFLLYTNQNQNNYQELVADPSTITNSNFRMDRKTRFIIHGFIDKGEEDWLSNICKNLFKVESVNCICVDWKGGSRTGYTQASQNIRIVGAEVAYFVEVLKSSLGYSPSNVHVIGHSLGSHAAGEAGRRTNGTIERITGLDPAEPCFQGTPELVRLDPSDAKFVDVIHTDAAPIIPNLGFGMSQTVGHLDFFPNGGKQMPGCQKNILSQIVDIDGIWEGTRDFVACNHLRSYKYYADSILNPDGFAGFPCDSYNVFTANKCFPCPSEGCPQMGHYADRFPGKTNGVSQVFYLNTGDASNFARWRYKVSVTLSGKKVTGHILVSLFGNEGNSRQYEIYKGTLQPDNTHSDEFDSDVEVGDLQKVKFIWYNNNVINPTLPRVGASKITVERNDGKVYDFCSQETVREEVLLTLNPC
extent of deesterification of paprika carotenoids (general statement, "shown herein"): to a very limited extent
deesterification in similar assays with other lipases, compared with lipase amano 30 (similar assays to FIGS. 3 and 4): far poorer results
